Data reported in patent US20150175678A1 (BETH ISRAEL DEACONESS MEDICAL CENTER, published 2015).

Columns and labels:
[1] = molecular target: HIV-1 67970 (Clade B, X4) envelope glycoprotein gp120 (HIV-1, isolate 67970); test: cell-based or functional assay
[2] = molecular target: HIV-1 JR-FL (Clade B, R5) envelope glycoprotein gp120 (HIV-1, isolate JR-FL); test: cell-based or functional assay

B1: F425-A1g8 IgA1 antibody variant expressed from CHO-K1 cells (antibody)
heavy: QEQLVESGGGVVQPGRSLRLSCEASGFIFSAFVLHWVRQAPGKGLEWVAVVWYDGNSKYYADSVKGRFTISRDTSQNTLHLQMDSLRPEDTAVYYCAREWVADDDTFDGFDVWGQGTMVTVSSASLTSPKVFPLSLCSTQPDGNVVIACLVQGFFPQEPLSVTWSESGQGVTARNFPPSQDASGDLYTTSSQLTLPATQCLAGKSVTCHVKHYTNPSQDVTVPCPVPSTPPTPSPSTPPTPSPSCCHPRLSLHRPALEDLLLGSEANLTCTLTGLRDASGVTFTWTPSSGKSAVQGPPDRDLCGCYSVSSVLSGCAEPWNHGKTFTCTAAYPESKTPLTATLSKSGNTFRPEVHLLPPPSEELALNELVTLTCLARGFSPKDVLVRWLQGSQELPREKYLTWASRQEPSQGTTTFAVTSILRVAAEDWKKGDTFSCMVGHEALPLAFTQKTIDRLAGKPTHVNVSVVMAEVDGTCY
light: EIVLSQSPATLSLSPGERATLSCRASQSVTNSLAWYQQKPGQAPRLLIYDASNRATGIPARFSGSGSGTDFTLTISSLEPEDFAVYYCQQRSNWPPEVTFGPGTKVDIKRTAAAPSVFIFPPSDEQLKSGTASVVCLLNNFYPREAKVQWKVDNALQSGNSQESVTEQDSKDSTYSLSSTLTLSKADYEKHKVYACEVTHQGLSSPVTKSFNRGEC
Which “Neutralization of HIV-1, IC50 (TZM-bl cells, beta-galactosidase)” value [1] does the source give for B1 here?
The value was 23.3 µg/mL.

What about the “Neutralization of HIV-1, IC50 (TZM-bl cells, beta-galactosidase)” value [2] of the same binder?
The value was 1.73 µg/mL.
